Where two headings read alike, the source gives them in different places.
B1: crRNA-1/lambda-activator + lambda ssDNA (T-strand) (mixed)
RNA: AAUUUCUACUGUUGUAGAUUGUAAAGAAACAGUAAGAUAAU
DNA: CATCGGGTTGAGTATTATCTTACTGTTTCTTTACATAAAC

What was measured:
[1] = molecular target: T1, wtCas12a (Francisella novicida, UniProt A0Q7Q2 1-1300); test: Mg2+
[2] = molecular target: T1, wtCas12a; test: Mg2+; remark: listed apart in the source

T1 sequence (A0Q7Q2 whole entry): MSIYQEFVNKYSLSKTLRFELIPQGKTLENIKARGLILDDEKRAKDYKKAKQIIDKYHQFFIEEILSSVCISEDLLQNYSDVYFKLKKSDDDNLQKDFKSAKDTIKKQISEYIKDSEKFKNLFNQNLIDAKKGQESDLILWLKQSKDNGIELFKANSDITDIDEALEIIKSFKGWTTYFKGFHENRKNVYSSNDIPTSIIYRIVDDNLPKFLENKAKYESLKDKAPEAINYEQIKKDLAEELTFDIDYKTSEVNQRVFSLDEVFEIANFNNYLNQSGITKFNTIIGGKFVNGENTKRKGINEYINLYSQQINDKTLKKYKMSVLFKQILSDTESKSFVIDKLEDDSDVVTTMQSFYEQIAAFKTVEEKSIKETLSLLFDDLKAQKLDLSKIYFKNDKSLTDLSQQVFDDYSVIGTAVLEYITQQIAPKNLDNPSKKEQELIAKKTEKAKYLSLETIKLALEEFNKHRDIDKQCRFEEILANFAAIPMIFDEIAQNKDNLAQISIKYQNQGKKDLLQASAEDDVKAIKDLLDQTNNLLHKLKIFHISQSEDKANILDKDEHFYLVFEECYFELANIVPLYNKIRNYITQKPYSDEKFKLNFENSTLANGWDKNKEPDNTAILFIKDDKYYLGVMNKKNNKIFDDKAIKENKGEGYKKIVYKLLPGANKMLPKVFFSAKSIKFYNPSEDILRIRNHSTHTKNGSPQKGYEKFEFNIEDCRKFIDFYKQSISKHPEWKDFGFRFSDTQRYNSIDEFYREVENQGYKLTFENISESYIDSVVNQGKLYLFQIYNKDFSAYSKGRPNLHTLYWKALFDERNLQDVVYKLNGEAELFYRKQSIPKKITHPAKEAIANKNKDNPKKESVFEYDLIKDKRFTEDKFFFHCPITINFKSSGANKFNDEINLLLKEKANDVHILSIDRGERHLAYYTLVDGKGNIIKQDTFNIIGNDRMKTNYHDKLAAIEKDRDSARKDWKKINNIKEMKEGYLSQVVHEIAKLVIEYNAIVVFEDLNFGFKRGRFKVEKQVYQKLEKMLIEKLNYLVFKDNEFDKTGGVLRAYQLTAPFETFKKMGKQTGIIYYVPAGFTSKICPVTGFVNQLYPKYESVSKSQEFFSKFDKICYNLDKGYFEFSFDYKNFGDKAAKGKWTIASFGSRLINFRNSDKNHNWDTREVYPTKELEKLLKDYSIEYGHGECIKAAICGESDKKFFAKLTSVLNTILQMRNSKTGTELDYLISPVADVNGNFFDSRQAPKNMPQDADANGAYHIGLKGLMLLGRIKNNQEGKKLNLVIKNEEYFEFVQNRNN

Binder	binding result [1]	binding result [2]
AAUUUCUACUGUUGUAGAUUGUAAAGAAACAGUAAGAUAAU (mixed) [crRNA-1 + lambda ssDNA (T-strand), no activator]	no binding	
B1		binds
